Data set [1] addresses T1, S. linguale α-NAGA (SlNAGA) (Spirosoma linguale, UniProt D2QUW2).
T1 construct: gene Slin_6637; E. coli BL21(DE3); monomer 48215 Da calculated, 96 kDa dimer; primers encode N-term MPSLYTTAQ and C-term PIFGLTDVY
T1 sequence (D2QUW2 1-435): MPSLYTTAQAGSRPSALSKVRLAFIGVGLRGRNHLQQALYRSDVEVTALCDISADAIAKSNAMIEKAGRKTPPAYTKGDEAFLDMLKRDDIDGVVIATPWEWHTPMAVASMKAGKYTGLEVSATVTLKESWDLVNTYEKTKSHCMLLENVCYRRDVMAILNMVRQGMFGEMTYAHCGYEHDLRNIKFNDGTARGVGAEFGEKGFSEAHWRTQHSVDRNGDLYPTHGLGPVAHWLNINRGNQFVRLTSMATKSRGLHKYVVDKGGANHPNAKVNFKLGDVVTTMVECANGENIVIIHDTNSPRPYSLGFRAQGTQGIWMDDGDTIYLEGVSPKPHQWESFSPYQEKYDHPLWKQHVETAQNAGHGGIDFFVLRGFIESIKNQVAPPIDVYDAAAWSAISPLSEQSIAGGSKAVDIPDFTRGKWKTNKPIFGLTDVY
Nature of the data set: Product inhibition of 4-nitrophenyl substrate hydrolysis, absorbance at […] nm, competitive model fit. Type of data set: biochemical. To be noted: 20 mM sodium phosphate pH 7.0, ~22 °C.

For data set [2], the target named is Spirosoma linguale α-N-acetylgalactosaminidase (Spirosoma linguale). The experiment in a line: SEC; analytical gel filtration of the tag-free purified enzyme, Zorbax GF-250 column, 30°C, TBS (50 mM Tris 150 mM NaCl) pH 7.4, 1.0 mL/min; mass from Ve/Vo against five protein standards.
Substrate in the data set “purified protein”: CC(=O)N[C@H]1[C@@H](Oc2ccc([N+](=O)[O-])cc2)O[C@H](CO)[C@H](O)[C@@H]1O
Nature of the data set: purified protein. Format: biochemical, Spirosoma linguale. To be noted: 20 mM sodium phosphate pH 7.4, 25 °C.

As for `CC(=O)N[C@H]1C(O)O[C@H](CO)[C@H](O)[C@@H]1O` (some centres unmarked) [N-acetylgalactosamine], the Ki in data set [1] was determined as 180 ± 24 µM.
In turn, “Spirosoma linguale α-N-acetylgalactosaminidase (enzyme)” displayed a stoichiometry N in data set [2] of 2.

B1: S. linguale α-NAGA (SlNAGA) (Spirosoma linguale DSM 74) (protein)
chain: MPSLYTTAQAGSRPSALSKVRLAFIGVGLRGRNHLQQALYRSDVEVTALCDISADAIAKSNAMIEKAGRKTPPAYTKGDEAFLDMLKRDDIDGVVIATPWEWHTPMAVASMKAGKYTGLEVSATVTLKESWDLVNTYEKTKSHCMLLENVCYRRDVMAILNMVRQGMFGEMTYAHCGYEHDLRNIKFNDGTARGVGAEFGEKGFSEAHWRTQHSVDRNGDLYPTHGLGPVAHWLNINRGNQFVRLTSMATKSRGLHKYVVDKGGANHPNAKVNFKLGDVVTTMVECANGENIVIIHDTNSPRPYSLGFRAQGTQGIWMDDGDTIYLEGVSPKPHQWESFSPYQEKYDHPLWKQHVETAQNAGHGGIDFFVLRGFIESIKNQVAPPIDVYDAAAWSAISPLSEQSIAGGSKAVDIPDFTRGKWKTNKPIFGLTDVY
notes: E. coli BL21(DE3); monomer 48215 Da calculated, 96 kDa dimer; primers encode N-term MPSLYTTAQ and C-term PIFGLTDVY
With B1, in “purified protein”, the Km is 1.07 ± 0.07 mM, the catalytic constant (kcat) worked out at 173 s⁻¹ and the kcat/Km stood at 163000 M⁻¹ s⁻¹.

The values are drawn from article PMC6521355, “Enzymatic Conversion of RBCs by α-N-Acetylgalactosaminidase from Spirosoma linguale” (Enzyme Research, 2019).
